T1: LRP6 (low-density lipoprotein receptor-related protein 6) (UniProt O75581 20-1370, limits assumed)
T1 sequence (looked up): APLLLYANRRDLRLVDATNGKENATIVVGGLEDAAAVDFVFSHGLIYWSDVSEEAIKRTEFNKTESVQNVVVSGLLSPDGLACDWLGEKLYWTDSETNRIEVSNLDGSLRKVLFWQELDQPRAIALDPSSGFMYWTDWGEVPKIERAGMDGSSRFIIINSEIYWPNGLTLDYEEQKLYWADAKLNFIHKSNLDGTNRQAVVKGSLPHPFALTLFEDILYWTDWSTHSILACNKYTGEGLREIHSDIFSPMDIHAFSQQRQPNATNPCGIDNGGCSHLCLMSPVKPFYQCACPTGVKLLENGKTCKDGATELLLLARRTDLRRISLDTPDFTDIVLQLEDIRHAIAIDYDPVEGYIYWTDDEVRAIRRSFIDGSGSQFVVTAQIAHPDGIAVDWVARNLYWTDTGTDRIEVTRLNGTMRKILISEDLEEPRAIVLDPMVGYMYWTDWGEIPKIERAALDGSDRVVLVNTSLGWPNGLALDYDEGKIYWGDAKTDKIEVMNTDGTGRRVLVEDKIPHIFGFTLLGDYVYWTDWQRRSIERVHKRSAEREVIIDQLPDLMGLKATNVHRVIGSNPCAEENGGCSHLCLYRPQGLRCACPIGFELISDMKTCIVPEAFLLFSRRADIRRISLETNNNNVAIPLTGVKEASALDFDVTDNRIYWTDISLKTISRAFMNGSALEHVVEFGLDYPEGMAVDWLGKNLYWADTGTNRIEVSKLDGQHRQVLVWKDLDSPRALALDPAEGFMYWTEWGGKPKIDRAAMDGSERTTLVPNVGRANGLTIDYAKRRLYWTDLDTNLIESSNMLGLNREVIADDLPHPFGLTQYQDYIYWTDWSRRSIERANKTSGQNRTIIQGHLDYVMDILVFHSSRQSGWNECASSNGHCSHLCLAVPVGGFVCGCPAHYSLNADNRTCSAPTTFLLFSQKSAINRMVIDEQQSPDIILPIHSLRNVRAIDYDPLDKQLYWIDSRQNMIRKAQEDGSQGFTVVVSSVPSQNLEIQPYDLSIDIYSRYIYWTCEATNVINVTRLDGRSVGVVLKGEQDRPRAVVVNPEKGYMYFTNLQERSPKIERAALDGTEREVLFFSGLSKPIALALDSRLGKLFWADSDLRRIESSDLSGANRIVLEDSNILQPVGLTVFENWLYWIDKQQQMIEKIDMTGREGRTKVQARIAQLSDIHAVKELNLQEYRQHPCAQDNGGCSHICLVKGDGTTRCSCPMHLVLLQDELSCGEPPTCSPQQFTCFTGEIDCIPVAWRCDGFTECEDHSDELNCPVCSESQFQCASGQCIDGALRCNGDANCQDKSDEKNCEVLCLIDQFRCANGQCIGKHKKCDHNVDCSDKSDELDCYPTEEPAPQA


molecular target: T1, LRP6 (low-density lipoprotein …); assay: cell-based or functional assay

Binder | TOPFLASH % Wnt Maxima
CM0299 (FZD IgG-LRP Diabody; paratopes 5016; 2539) (bispecific antibody) heavy: not shown light: DIQMTQSPSSLSASVGDRVTITCRASQSVSSAVAWYQQKPGKAPKLLIYSASSLYSGVPSRFSGSRSGTDFTLTISSLQPEDFATYYCQQGVYLFTFGQGTKVEIKRTVAAPSVFIFPPSDEQLKSGTASVVCLLNNFYPREAKVQWKVDNALQSGNSQESVTEQDSKDSTYSLSSTLTLSKADYEKHKVYACEVTHQGLSSPVTKSFNRGEC | 14 % Wnt Maxima
CM0300 (FZD IgG-LRP scFv; paratopes 5016; 2539) (bispecific antibody) heavy: not shown light: DIQMTQSPSSLSASVGDRVTITCRASQSVSSAVAWYQQKPGKAPKLLIYSASSLYSGVPSRFSGSRSGTDFTLTISSLQPEDFATYYCQQGVYLFTFGQGTKVEIKRTVAAPSVFIFPPSDEQLKSGTASVVCLLNNFYPREAKVQWKVDNALQSGNSQESVTEQDSKDSTYSLSSTLTLSKADYEKHKVYACEVTHQGLSSPVTKSFNRGEC | 5 % Wnt Maxima

Other lines, results leading:

TOPFLASH % Wnt Maxima | Binder
42 % Wnt Maxima | CT0003 (Table 5: FZD Diabody-Fc-LRP scFv; paratopes 5016; 2539, 2542) (bispecific antibody) chain 1: MNLLLILTFVAAAVAEFEVQLVESGGGLVQPGGSLRLSCAASGFNISSYYIHWVRQAPGKGLEWVASIYSSYGYTSYADSVKGRFTISADTSKNTAYLQMNSLRAEDTAVYYCARTVRGSKKPYFSGWAMDYWGQGTLVTVSSGGGGSDIQMTQSPSSLSASVGDRVTITCRASQSVSSAVAWYQQKPGKAPKLLIYSASSLYSGVPSRFSGSRSGTDFTLTISSLQPEDFATYYCQQYSWGPFTFGQGTKVEIKLEDKTHTKVEPKSSDKTHNCPPCPAPELLGGPSVFLFPPKPKDTLMISRTPEVTCVVVDVSHEDPEVKFNWYVDGVEVHNAKTKPREEQYNSTYRVVSVLTVLHQDWLNGKEYKCKVSNKALPAPIEKTISKAKGQPREPQVYTLPPIRELMTSNQVSLSCAVKGFYPSDIAVEWESNGQPENNYKTTPPVLDSDGSFFLVSKLTVDKSRWQQGNVFSCSVMHEALHNHYTQKSLSLSPGKSGSETPGTSESATPESGGGEVQLVESGGGLVQPGGSLRLSCAASGFNIHSSSIHWVRQAPGKGLEWVAATYSSFGSITYADSVKGRFTISADTSKNTAYLQMNSLRAEDTAVYYCARYHHPFGYALDYWGQGTLVTVSSGTTAASGSSGGSSSGADIQMTQSPSSLSASVGDRVTITCRASQSVSSAVAWYQQKPGKAPKLLIYSASSLYSGVPSRFSGSRSGTDFTLTISSLQPEDFATYYCQQGVYLFTFGQGTKVEIK chain 2: MNLLLILTFVAAAVAEFEVQLVESGGGLVQPGGSLRLSCAASGFNISYSSIHWVRQAPGKGLEWVAYISSYYGYTYYADSVKGRFTISADTSKNTAYLQMNSLRAEDTAVYYCARAHYFPWAGAMDYWGQGTLVTVSSGGGGDIQMTQSPSSLSASVGDRVTITCRASQSVSSAVAWYQQKPGKAPKLLIYSASSLYSGVPSRFSGSRSGTDFTLTISSLQPEDFATYYCQQYYWPITFGQGTKVEIKLEDKTHTKVEPKTSDKTHTCPPCPAPELLGGPSVFLFPPKPKDTLMISRTPEVTCVVVDVSHEDPEVKFNWYVDGVEVHNAKTKPREEQYNSTYRVVSVLTVLHQDWLNGKEYKCKVSNKALPAPIEKTISKAKGQPREPMVFDLPPSREEMTKNQVSLWCMVKGFYPSDIAVEWESNGQPENNYKTTPPVLDSDGSFFLYSKLTVDKSRWQQGNVFSCSVMHEALHNHYTQKSLSLSPGKSGSETPGTSESATPESGGGEVQLVESGGGLVQPGGSLRLSCAASGFNIHSSSIHWVRQAPGKGLEWVAATYSSFGSITYADSVKGRFTISADTSKNTAYLQMNSLRAEDTAVYYCARYHHPFGYALDYWGQGTLVTVSSGTTAASGSSGGSSSGADIQMTQSPSSLSASVGDRVTITCRASQSVSSAVAWYQQKPGKAPKLLIYSASSLYSGVPSRFSGSRSGTDFTLTISSLQPEDFATYYCQQGVYLFTFGQGTKVEIK
1 % Wnt Maxima | CM0301 (FZD IgG-LRP scFv; paratopes 5016; 2542) (bispecific antibody) heavy: not shown light: DIQMTQSPSSLSASVGDRVTITCRASQSVSSAVAWYQQKPGKAPKLLIYSASSLYSGVPSRFSGSRSGTDFTLTISSLQPEDFATYYCQQGVYLFTFGQGTKVEIKRTVAAPSVFIFPPSDEQLKSGTASVVCLLNNFYPREAKVQWKVDNALQSGNSQESVTEQDSKDSTYSLSSTLTLSKADYEKHKVYACEVTHQGLSSPVTKSFNRGEC

molecular target: T1, LRP6 (low-density lipoprotein …); assay: cell-based or functional assay; remark: another data set of the same source

TOPFLASH Maximal Signal (% Wnt3a maxima) | Binder
22 % Wnt3a maxima | CH3 (Dia-CH3-Dia; paratopes 5019; 2539) (bispecific antibody) MNLLLILTFVAAAVAEFEVQLVESGGGLVQPGGSLRLSCAASGFNIGSSSIHWVRQAPGKGLEWVASIYSAFASTSYADSVKGRFTISADTSKNTAYLQMNSLRAEDTAVYYCARYHFPFGFALDYWGQGTLVTVSSGGGGSDIQMTQSPSSLSASVGDRVTITCRASQSVSSAVAWYQQKPGKAPKLLIYSASSLYSGVPSRFSGSRSGTDFTLTISSLQPEDFATYYCQQGVYLFTFGQGTKVEIKDKTHTKVEPKTSDKTHTCPPCPGQPREPQVYTLPPSREEMTKNQVSLTCLVKGFYPSDIAVEWESNGQPENNYKTTPPVLDSDGSFFLYSKLTVDKSRWQQGNVFSCSVMHEALHNHYTQKSLSLSPGKGTTAASGSSGGSSSGAGRTEVQLVESGGGLVQPGGSLRLSCAASGFNISYSSIHWVRQAPGKGLEWVAYISSYYGYTYYADSVKGRFTISADTSKNTAYLQMNSLRAEDTAVYYCARAHYFPWAGAMDYWGQGTLVTVSSGGGGSDIQMTQSPSSLSASVGDRVTITCRASQSVSSAVAWYQQKPGKAPKLLIYSASSLYSGVPSRFSGSRSGTDFTLTISSLQPEDFATYYCQQYSWGPFTFGQGTKVEIK
42 % Wnt3a maxima | Fab-Dia (paratopes 5016; 2540/2542) (bispecific antibody) heavy: EVQLVESGGGLVQPGGSLRLSCAASGFNIHSSSIHWVRQAPGKGLEWVAATYSSFGSITYADSVKGRFTISADTSKNTAYLQMNSLRAEDTAVYYCARYHHPFGYALDYWGQGTLVTVSSASTKGPSVFPLAPSSKSTSGGTAALGCLVKDYFPEPVTVSWNSGALTSGVHTFPAVLQSSGLYSLSSVVTVPSSSLGTQTYICNVNHKPSNTKVDKKVEPKSCDKTHTGGSGGEVQLVESGGGLVQPGGSLRLSCAASGFTISYSSIHWVRQAPGKGLEWVASISPYYGYTYYADSVKGRFTISADTSKNTAYLQMNSLRAEDTAVYYCARSSYFPWFSAMDYWGQGTLVTVSSGGGGSDIQMTQSPSSLSASVGDRVTITCRASQSVSSAVAWYQQKPGKAPKLLIYSASSLYSGVPSRFSGSRSGTDFTLTISSLQPEDFATYYCQQYYWPITFGQGTKVEIK light: DIQMTQSPSSLSASVGDRVTITCRASQSVSSAVAWYQQKPGKAPKLLIYSASSLYSGVPSRFSGSRSGTDFTLTISSLQPEDFATYYCQQGVYLFTFGQGTKVEIKRTVAAPSVFIFPPSDEQLKSGTASVVCLLNNFYPREAKVQWKVDNALQSGNSQESVTEQDSKDSTYSLSSTLTLSKADYEKHKVYACEVTHQGLSSPVTKSFNRGECGGGGSEVQLVESGGGLVQPGGSLRLSCAASGFTISSYYIHWVRQAPGKGLEWVASIYSSYGYTSYADSVKGRFTISADTSKNTAYLQMNSLRAEDTAVYYCARTVRGSKKPYFSGWAMDYWGQGTLVTVSSGGGGSDIQMTQSPSSLSASVGDRVTITCRASQSVSSAVAWYQQKPGKAPKLLIYSASSLYSGVPSRFSGSRSGTDFTLTISSLQPEDFATYYCQQYYFLITFGQGTKVEIK
